Among the data in PMC12689640 are efficacy of Gi activation against wild type (Gi dissociation BRET), efficacy of Gi dissociation against wild type (BRET), stimulated with DAMGO and decrease of Gi dissociation efficacy against wild type (BRET) values, retold here.

For test [1], the target named is μOR N86^1.50A-RLuc8 (mouse) (UniProt P42866).
The target in test [2] is μOR Q124^2.60L-RLuc8 (mouse) (UniProt P42866).
Test [3] has as its target μOR Y326^7.43F-RLuc8 (mouse) (UniProt P42866).
The target of test [4] is μOR W293^6.48A-RLuc8 (mouse) (UniProt P42866).
For test [5], the target named is μOR S329^7.46A-RLuc8 (mouse) (UniProt P42866).

As to “Gi heterotrimer of the dissociation assay (Gαi1-RLuc8, Gβ1, Venus-Gγ2) (from UniProt P63096 1-354; P62873 1-340; P59768 1-71) (complex)”, the efficacy of Gi activation against wild type (Gi dissociation BRET) in test [1] was 40 to 60%; in test [4], 35 to 60%. In addition, the efficacy of Gi dissociation against wild type (BRET), stimulated with DAMGO in test [2] was 60%. In addition, the decrease of Gi dissociation efficacy against wild type (BRET) in test [3] was determined as 30%; in test [5], 40%.
